Here are results for 1 substance from publication PMC9359980.

Test [1] concerns the target Photozipper (PZ), wild-type (Vaucheria frigida). As to the kind of experiment: high-speed atomic force microscopy (HS-AFM); molecules on mica in Buffer-B (1 mM NaCl, 20 mM Tris-HCl pH 7, 1 mM DTT, 0.2 mM PMSF), room temperature, dark conditions (prepared under dim red light); 13-38 nM protein; dimer to monomers.
Test [2] shares this target. Kind of test: high-speed atomic force microscopy (HS-AFM); molecules on mica in Buffer-B (1 mM NaCl, 20 mM Tris-HCl pH 7, 1 mM DTT, 0.2 mM PMSF), room temperature, blue light illumination (450 nm, about 4.3 mW/mm^2); 13-50 nM protein; dimer to monomers.

A word on the stoichiometry N: it is a count of units in the complex or per binding partner. “Photozipper (PZ), wild-type (domain or fragment)”: in test [1], the average dimer lifetime is 8.1 s and the stoichiometry N amounted to 2. In test [2], this substance yielded an average dimer lifetime of 86 s; a stoichiometry N of 2; a time constant of the dimerization rate (38 nM PZ, after the start of blue light) of 255 s.
